Experimental data: patent US20160375112A1 (priority 2013, published 2016)

Conditions: human, in vivo

In the case of botulinum toxin, the “botulinum toxin-related reactions (hypersensitivity, after injection and before ALDARA)” value is reported as “No botulinum toxin-related reactions”.
